The values below come from article PMC4078008, “Exploring metabolic engineering design principles for the photosynthetic production of lactic acid by Synechocystis sp. PCC6803” (Biotechnology for Biofuels, 2014).

Substrate in this series: CC(=O)C(=O)O
The experiment in a line: purified protein. It counts as biochemical, Bacillus subtilis. Particulars: 50 mM phosphate pH 6.5, 30 °C, no FBP, co-substrate NADH (general LDH assay).

B1: L-LDH of B. subtilis (BsLDH) (Bacillus subtilis subsp. subtilis str. 168) (protein)
chain: MNKHVNKVALIGAGFVGSSYAFALINQGITDELVVIDVNKEKAMGDVMDLNHGKAFAPQPVKTSYGTYEDCKDADIVCICAGANQKPGETRLELVEKNLKIFKGIVSEVMASGFDGIFLVATNPVDILTYATWKFSGLPKERVIGSGTTLDSARFRFMLSEYFGAAPQNVHAHIIGEHGDTELPVWSHANVGGVPVSELVEKNDAYKQEELDQIVDDVKNAAYHIIEKKGATYYGVAMSLARITKAILHNENSILTVSTYLDGQYGADDVYIGVPAVVNRGGIAGITELNLNEKEKEQFLHSAGVLKNILKPHFAEQKVN
notes: codon-optimized gene, pET28b+ NdeI/HindIII, N-terminal His-tag (removal not mentioned), E. coli BL21(DE3), HisTrap-purified
For the protein B1, the Km (commonly the concentration of substrate that gives half-maximal velocity) amounted to 4.34 ± 1.24 mM.

B2: L-LDH of B. subtilis (BsLDH) (Bacillus subtilis subsp. subtilis str. 168; V38R) (protein)
chain: MNKHVNKVALIGAGFVGSSYAFALINQGITDELVVIDRNKEKAMGDVMDLNHGKAFAPQPVKTSYGTYEDCKDADIVCICAGANQKPGETRLELVEKNLKIFKGIVSEVMASGFDGIFLVATNPVDILTYATWKFSGLPKERVIGSGTTLDSARFRFMLSEYFGAAPQNVHAHIIGEHGDTELPVWSHANVGGVPVSELVEKNDAYKQEELDQIVDDVKNAAYHIIEKKGATYYGVAMSLARITKAILHNENSILTVSTYLDGQYGADDVYIGVPAVVNRGGIAGITELNLNEKEKEQFLHSAGVLKNILKPHFAEQKVN
notes: as for B1
Take B2: the Km came to 4.00 ± 0.50 mM.
